Positions count from the first letter of the chain named. Where two headings read alike, the source gives them in different places. One block for each binder: values may come before it.
Assays:
Assay in all cases: cell-based or functional assay
[1] = target: T1, recombinant human TFPI (tissue factor pathway inhibitor) (human, UniProt P10646 29-304)
[2] = target: T1, recombinant human TFPI (tissue factor …); remark: listed apart in the source
[3] = target: T1, recombinant human TFPI (tissue factor …); remark: listed apart in the source
[4] = target: T1, recombinant human TFPI (tissue factor …); remark: listed apart in the source
[5] = target: T1, recombinant human TFPI (tissue factor …); remark: listed apart in the source
[6] = target: T1, recombinant human TFPI (tissue factor …); remark: listed apart in the source

FXa assay % of FXa alone, 2.5 nM Ab, 10 nM TFPI [1]: 6.3%
FXa assay % of FXa alone, 5 nM Ab, 10 nM TFPI [1]: 17.1%
FXa assay % of FXa alone, 10 nM Ab, 10 nM TFPI [1]: 50.1%
FXa assay % of FXa alone, 20 nM Ab, 10 nM TFPI [1]: 72%
FXa assay OD, 2.5 nM Ab, 10 nM TFPI [1]: 0.048
FXa assay OD, 5 nM Ab, 10 nM TFPI [1]: 0.131
FXa assay OD, 10 nM Ab, 10 nM TFPI [1]: 0.381
FXa assay OD, 20 nM Ab, 10 nM TFPI [1]: 0.548
B1: clone 1 (antibody, V domains shown)
VH: EVQLVESGGGLVKPGGSLRLSCAASGFTFSSYAMNWVRQAPGKGLEWVGTITTGGSYTYYADSVDGRFTISRDNAKNSLYLQMNSLRAEDTAVYYCARQDGNFLMDYWGQGTLVTVSS
VL: DVVMTQTPLSLPVTLGQPASISCKSSPSLLDSDGKTYLNWLQQRPGQSPKRLIYLVSKLDSGVPDRFTGSGSGTDFTLKISRVEAEDVGVYYCWQGTHFPFTFGQGTKVEIKR

FXa assay % of FXa alone, 2.5 nM Ab, 10 nM TFPI [2]: 3.4%
FXa assay % of FXa alone, 5 nM Ab, 10 nM TFPI [2]: 3.5%
FXa assay % of FXa alone, 10 nM Ab, 10 nM TFPI [2]: 3.3%
FXa assay % of FXa alone, 20 nM Ab, 10 nM TFPI [2]: 2.5%
B2: clone 4287 (antibody, V domains shown)
VH: EVQLVESGGGLVKPGGSLRLSCAASGFTFSKYAMNWFRQAPGKGLEWVSTITTGGSYTYYADSVEGRFTISRDNAKNSLYLQMNSLRAEDTAVYYCARQHPYGNFLMDYWGQGTLVTVSS
VL: B1 VL with P27Q, S32I

FXa assay % of FXa alone, 2.5 nM Ab, 10 nM TFPI [3]: 4.7%
FXa assay % of FXa alone, 10 nM Ab, 10 nM TFPI [3]: 32.9%
FXa assay % of FXa alone, 20 nM Ab, 10 nM TFPI [3]: 78.7%
FXa assay OD, 2.5 nM Ab, 10 nM TFPI [3]: 0.034
FXa assay OD, 10 nM Ab, 10 nM TFPI [3]: 0.236
FXa assay OD, 20 nM Ab, 10 nM TFPI [3]: 0.566
B3: clone 1021 (antibody, V domains shown)
VH: B1 VH with G49S, N102H
VL: B1 VL with P27Q, S32I

FXa assay % of FXa alone, 2.5 nM Ab, 10 nM TFPI [3]: 3.5%
FXa assay % of FXa alone, 5 nM Ab, 10 nM TFPI [3]: 3.6%
FXa assay % of FXa alone, 10 nM Ab, 10 nM TFPI [3]: 3.6%
FXa assay % of FXa alone, 20 nM Ab, 10 nM TFPI [3]: 3%
B4: clone 3007 (antibody, V domains shown)
VH: B1 VH with S30T, G49S, T53L, D65Q
VL: B1 VL with P27Q, S32L

FXa assay % of FXa alone, 2.5 nM Ab, 10 nM TFPI [4]: 4.7%
FXa assay % of FXa alone, 5 nM Ab, 10 nM TFPI [4]: 6.1%
FXa assay % of FXa alone, 10 nM Ab, 10 nM TFPI [4]: 7.1%
FXa assay % of FXa alone, 20 nM Ab, 10 nM TFPI [4]: 38.6%
FXa assay OD, 2.5 nM Ab, 10 nM TFPI [4]: 0.038
FXa assay OD, 20 nM Ab, 10 nM TFPI [4]: 0.314
B5: clone 4206 (antibody, V domains shown)
VH: B1 VH with G49S, Y57H, D65E, N84D
VL: B1 VL with P27Q, S32V, F99L

FXa assay % of FXa alone, 2.5 nM Ab, 10 nM TFPI [3]: 3.7%
FXa assay % of FXa alone, 5 nM Ab, 10 nM TFPI [3]: 4.8%
FXa assay % of FXa alone, 10 nM Ab, 10 nM TFPI [3]: 6.3%
FXa assay % of FXa alone, 20 nM Ab, 10 nM TFPI [3]: 14.2%
FXa assay OD, 20 nM Ab, 10 nM TFPI [3]: 0.102
B6: clone 3016 (antibody, V domains shown)
VH: B1 VH with G49S, Y57H, D65E
VL: B1 VL with P27Q, F99L

FXa assay % of FXa alone, 2.5 nM Ab, 10 nM TFPI [2]: 4.5%
FXa assay % of FXa alone, 5 nM Ab, 10 nM TFPI [2]: 13.2%
FXa assay % of FXa alone, 10 nM Ab, 10 nM TFPI [2]: 5.6%
FXa assay % of FXa alone, 20 nM Ab, 10 nM TFPI [2]: 63.2%
FXa assay OD, 2.5 nM Ab, 10 nM TFPI [2]: 0.039
FXa assay OD, 5 nM Ab, 10 nM TFPI [2]: 0.115
FXa assay OD, 10 nM Ab, 10 nM TFPI [2]: 0.0485
FXa assay OD, 20 nM Ab, 10 nM TFPI [2]: 0.55
B7: clone 1238 (antibody, V domains shown)
VH: B1 VH with G49S, D65E, N102H
VL: B1 VL with P27Q, S32V

FXa assay % of FXa alone, 2.5 nM Ab, 10 nM TFPI [5]: 6.2%
FXa assay % of FXa alone, 5 nM Ab, 10 nM TFPI [5]: 8.1%
FXa assay % of FXa alone, 10 nM Ab, 10 nM TFPI [5]: 16.2%
FXa assay % of FXa alone, 20 nM Ab, 10 nM TFPI [5]: 69.1%
FXa assay OD, 10 nM Ab, 10 nM TFPI [5]: 0.125
FXa assay OD, 20 nM Ab, 10 nM TFPI [5]: 0.532
B8: clone 3115 (antibody, V domains shown)
VH: B1 VH with Y57H
VL: B1 VL with P27Q, S32V

FXa assay % of FXa alone, 2.5 nM Ab, 10 nM TFPI [6]: 8.5%
FXa assay % of FXa alone, 5 nM Ab, 10 nM TFPI [6]: 28.3%
FXa assay % of FXa alone, 10 nM Ab, 10 nM TFPI [6]: 60%
FXa assay % of FXa alone, 20 nM Ab, 10 nM TFPI [6]: 69.2%
FXa assay OD, 2.5 nM Ab, 10 nM TFPI [6]: 0.041
FXa assay OD, 5 nM Ab, 10 nM TFPI [6]: 0.137
FXa assay OD, 10 nM Ab, 10 nM TFPI [6]: 0.29
FXa assay OD, 20 nM Ab, 10 nM TFPI [6]: 0.335
B9: clone 1104 (antibody, V domains shown)
VH: B1 VH with Y57H, D65Q
VL: B1 VL with P27Q, S32V

FXa assay % of FXa alone, 2.5 nM Ab, 10 nM TFPI [2]: 5.1%
FXa assay % of FXa alone, 5 nM Ab, 10 nM TFPI [2]: 6.9%
FXa assay % of FXa alone, 10 nM Ab, 10 nM TFPI [2]: 29%
FXa assay % of FXa alone, 20 nM Ab, 10 nM TFPI [2]: 66.1%
FXa assay OD, 5 nM Ab, 10 nM TFPI [2]: 0.06
FXa assay OD, 10 nM Ab, 10 nM TFPI [2]: 0.252
FXa assay OD, 20 nM Ab, 10 nM TFPI [2]: 0.576
B10: clone 1224 (antibody, V domains shown)
VH: B1 VH with N35S, G49S
VL: B1 VL with P27Q, S32I
